Measurements published in US20180127493A1.

Legend:
[1] = molecular target: recombinant human VEGF165 (PeproTech EC Ltd.) (human) (UniProt P15692); assay: SPR, BIAcore T100, hVEGF165 amine-coupled on CM4 chip, scFv as analyte
[2] = molecular target: Human TNFα N-his trimers (human) (UniProt P01375); assay: SPR, BIAcore T100, His-tagged human TNFα trimers captured on NTA chip, scFv as analyte
[3] = molecular target: VEGF (as used in the VEGFR competition ELISA); assay: competition ELISA, VEGF binding to hVEGFR1; ratio to reference Luc
VEGF (as used in the VEGFR competition ELISA), sequence (P15692 whole entry): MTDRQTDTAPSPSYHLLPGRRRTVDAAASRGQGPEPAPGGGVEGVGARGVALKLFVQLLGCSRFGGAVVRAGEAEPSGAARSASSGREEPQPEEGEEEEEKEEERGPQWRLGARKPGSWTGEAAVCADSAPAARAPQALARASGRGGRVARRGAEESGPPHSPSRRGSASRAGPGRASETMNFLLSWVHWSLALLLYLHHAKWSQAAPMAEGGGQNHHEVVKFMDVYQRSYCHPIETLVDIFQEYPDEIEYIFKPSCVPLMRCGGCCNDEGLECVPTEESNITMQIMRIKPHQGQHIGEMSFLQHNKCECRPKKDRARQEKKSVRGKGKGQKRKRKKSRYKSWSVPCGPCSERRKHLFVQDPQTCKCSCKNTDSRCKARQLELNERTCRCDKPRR

recombinant human VEGF165 (PeproTech EC Ltd.) (human), sequence (P15692 other isoform, or with tags, fused parts or gaps limits assumed): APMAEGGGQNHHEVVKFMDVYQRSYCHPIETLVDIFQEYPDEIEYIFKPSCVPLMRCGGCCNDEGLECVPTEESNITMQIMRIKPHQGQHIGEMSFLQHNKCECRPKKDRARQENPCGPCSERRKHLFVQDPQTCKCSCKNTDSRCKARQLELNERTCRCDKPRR
Human TNFα N-his trimers (human), sequence (P01375 77-233 limits assumed): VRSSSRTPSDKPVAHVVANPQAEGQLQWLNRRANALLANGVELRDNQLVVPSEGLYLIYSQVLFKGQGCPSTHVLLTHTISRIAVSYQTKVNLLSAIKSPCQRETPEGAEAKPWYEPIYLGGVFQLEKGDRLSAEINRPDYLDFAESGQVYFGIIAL

| Binder | Kd [1] | koff [1] | kon [1] | Kd [2] | Rel. activity hVEGR1 comp. ELISA (EC50Luc [nM]/EC50test [nM]) [3] |
| --- | --- | --- | --- | --- | --- |
| 578-max (scFv, from a related filing, part only) scFv: EIVMTQSPSTLSASVGDRVIITCQASEIIHSWLAWYQQKPGKAPKLLIYLASTLASGVPSRFSGSGSGTQFTLTISSLQPDDFATYYCQNVYLASTNGANFGQGTKLTVLGGGGGSGGGGSGGGGSGGGGSEVQLVESGGGLVQPGGSLRLSCTASGFSLTDYYYMTWVRQAPGKGLEWVGFIDPDDDPYYATWAKGRFTISRDTSKNTVYLQMNSLRAEDTAVYYCAGGDHNSGWGLDIWGQGTLVTVSS | 0.439 nM | 0.000307 s⁻¹ | 700000 M⁻¹ s⁻¹ | – | – |
| EP43_min (scFv) scFv: EIVMTQSPSTLSASVGDRVIITCQASQSISDWLAWYQQKPGKAPKLLIYGASRLASGVPSRFSGSGSGAEFTLTISSLQPDDFATYYCQQGWSDSYVDNLFGQGTKLTVLGGGGGSGGGGSGGGGSGGGGSEVQLVESGGGLVQPGGSLRLSCAASGFSLSSGAMSWVRQAPGKGLEWVSVIISSGATYYASWAKGRFTISRDNSKNTLYLQMNSLRAEDTAVYYCAKGGPDDSNSMGTFDPWGQGTLVTVSS | – | – | – | 5540 nM | – |
| 511-max (scFv, from a related filing, part only) scFv: EIVMTQSPSTLSASVGDRVIITCQASQSINIWLSWYQQKPGKAPKLLIYRASTLASGVPSRFSGSGSGTEFTLTISSLQPDDFATYYCQANYAYSAGYGAAFGQGTKLTVLGGGGGSGGGGSGGGGSGGGGSEVQLVESGGGLVQPGGSLRLSCTVSGFSLNTYYMNWVRQAPGKGLEWVGIIAPDDTTYYASWAKSRSTISRDTSKNTVYLQMNSLRAEDTAVYYCARSGDTTAWGADIWGQGTLVTVSS | 0.0667 nM | 4.4e-05 s⁻¹ | 659000 M⁻¹ s⁻¹ | – | 8 |
